Measurements: patent publication US20110300156A1 (Genmab, published 2011)
One block for each binder: values may come before it.

Assays:
[1] = target: T1, murine tissue factor (TF) on transfected HEK293F cells (murine, UniProt P20352 29-294); test: FACS on transfected HEK293F cells, 30 µg/mL antibody [panel L]
T1 construct: whole, on cells; also called murine TF; TFmm
T1 sequence (looked up): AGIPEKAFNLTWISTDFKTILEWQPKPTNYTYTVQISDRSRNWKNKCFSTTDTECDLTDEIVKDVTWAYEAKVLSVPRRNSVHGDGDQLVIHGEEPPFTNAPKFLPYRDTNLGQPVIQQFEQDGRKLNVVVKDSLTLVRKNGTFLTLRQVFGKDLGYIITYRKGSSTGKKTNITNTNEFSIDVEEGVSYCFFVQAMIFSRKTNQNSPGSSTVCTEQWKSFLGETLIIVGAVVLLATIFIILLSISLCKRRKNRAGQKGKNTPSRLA

[2] = target: T2, human tissue factor (TF), membrane-bound on cells (human, UniProt P13726 33-295); test: cell-based or functional assay
[3] = target: T2, human tissue factor (TF), …; test: FACS, TF transfected CHO cells (S1015-TF)
Experimental: (§1) Cells were resuspended in PBS (2×10⁶ cells/ml), put in 96-well V-bottom plates (50 μl/well). 50 μl of serially diluted HuMab in FACS buffer (PBS supplemented with 0.1% BSA and 0.02% Na-azide) was added to the cells and incubated for 30 minutes on ice. After washing three times with FACS buffer, 50 μl of phycoerythrin (PE)-conjugated goat anti-human IgGFc (Jackson ImmunoResearch), diluted 1:100 in FACS buffer, was added. After 30 minutes on ice (in the dark), cells were washed three times, and specific binding of the HuMabs was detected by flow cytometry on a FACSCalibur (BD Biosciences). HuMab-KLH was used as a negative control. Mouse anti-TF followed by PE-conjugated anti-mouse IgGFc was used as positive control. Binding curves were analyzed using non-linear regression (sigmoidal dose-response with variable slope) using GraphPad Prism V4.03 software (GraphPad Software, San Diego, Calif., USA).

[4] = target: T2, human tissue factor (TF), …; test: cell-based or functional assay; remark: listed apart in the source
[5] = target: T2, human tissue factor (TF), …; test: FACS, Bx-PC3 cells
Experimental: as §1

[6] = target: T2, human tissue factor (TF), …; test: FACS, A431 cells
Experimental: as §1

[7] = target: T3, TF (Innovin) (UniProt P13726 33-295, limits assumed); test: cell-based or functional assay
[8] = target: T2, human tissue factor (TF), …; test: FACS, Bx-PC3 cells, 30 µg/mL
Experimental: as §1

[9] = target: T2, human tissue factor (TF), …; test: FACS, MDA-MB-231 cells
Experimental: as §1

[10] = target: T4, TFECDHis (extracellular domain of tissue factor, amino acid 1-251, with C-terminal His tag) (human, UniProt P13726 33-251); test: ELISA, coated TFECDHis, mean of 3
T4 construct: range 1-251; The stated range 1-251 starts at residue 1 of NP-001984; also called extracellular domain of TF
Experimental: The specificity of the obtained anti-TF HuMabs was evaluated by ELISA. ELISA plates (Microlon; Greiner Bio-One) were coated overnight at +4° C. with 0.5 μg/mL of TFECDHis in PBS, pH 7.4. Coated ELISA plates were emptied and blocked for one hour at room temperature with 2% (v/v) chicken serum (Gibco, Paisley, Scotland) in PBS and washed with PBS containing 0.05% Tween 20 (PBST). Subsequently, HuMabs, serially diluted in PBSTC (PBS supplemented with 2% (v/v) chicken serum and 0.05% (v/v) Tween-20), were incubated for 1 hr at RT under shaking conditions (300 rpm). Bound HuMabs were detected using HRP-conjugated goat-anti-human IgG antibodies (Jackson ImmunoResearch) diluted 1:5,000 in PBSTC, which were incubated for 1 hr at RT under shaking conditions (300 rpm). […] HuMab-KLH (a human monoclonal antibody against KLH (keyhole limpet haemocyanin)), was used as a negative control. Mouse anti-human TF (ERL) was used as positive control (HRP labeled anti-mouse IgG as conjugate). Binding curves were analyzed using non-linear regression (sigmoidal dose-response with variable slope) using GraphPad Prism V4.03 software.

[11] = target: T2, human tissue factor (TF), …; test: FACS, A431 cells, 30 µg/mL
Experimental: as §1

[12] = target: T2, human tissue factor (TF), …; test: FACS, TF transfected CHO cells (S1015-TF), 7.5 µg/mL
Experimental: as §1

[13] = target: T2, human tissue factor (TF), …; test: FACS, MDA-MB-231 cells, 30 µg/mL
Experimental: as §1

[14] = target: T2, human tissue factor (TF), …; test: cell-based or functional assay; remark: listed apart in the source
[15] = target: T3, TF (Innovin); test: cell-based or functional assay; remark: listed apart in the source
[16] = target: T1, murine tissue factor (TF) on …; test: FACS on transfected HEK293F cells, 30 µg/mL antibody [panel N]
[17] = target: T4, TFECDHis (extracellular domain of …); test: SPR avidity format: TFECDHis immobilized, bivalent HuMab as analyte (printed as avidity nM)
Experimental: Antibody binding to TF was analyzed by surface plasmon resonance in a BIAcore 3000 (GE Healthcare). TFECDHis was used for the analysis. HuMab antibodies (500 resonance units) were immobilized on the CM-5 sensor chip according to the procedure recommended by the manufacturer. Briefly, after surface activation by EDC and NHS HuMab antibody was injected over the activated CM-5 surface in 10 mM sodium-acetate, pH ranging from 4.0 to 5.5 at 5 μl/min. followed by 1 M Ethanolamine for deactivation. Concentration series of TFECDHis in HBS-EP buffer were injected over the immobilized antibodies at a flow rate of 30 μl/min for 180 sec. Regeneration of the HuMab surface was performed by injection of 10 mM Glycine-HCl pH 2.0 or 10 mM sodium acetate pH 3.0. Kinetic analysis was performed using double reference subtraction and model 1:1 (langmuir) binding analysis.
TF (TFECDHis) binding to TF-specific HuMabs was determined essentially as described above, with TFECDHis being immobilized on the CM-5 sensor chip (300 resonance units), and concentration series of Humab antibodies used for kinetic analysis. Kinetic analysis was performed using double reference subtraction and model 1:1 (langmuir) binding analysis.

[18] = target: T4, TFECDHis (extracellular domain of …); test: competition ELISA, inhibition of FVIIa (100 nM) binding to coated TFECDHis
Experimental: ELISA plates were coated overnight with TFECDHis (0.5 μg/mL, 100 μL per well). Plates were emptied, blocked with PBS containing 2% (v/v) chicken serum (1 hour, RT), and emptied again. […] Plates were washed and incubated with swine-anti-rabbit IgG-HRP antibody (1:2,500; DAKO). After washing, the immune complexes were visualized using ABTS as a substrate.

[19] = target: T2, human tissue factor (TF), …; test: FACS on MDA-MB-231 cells (~900.000 TF molecules/cell) [panel MDA-MB-231 cells]
Experimental: as §1
(§2) Binding of anti-TF HuMabs to membrane-bound TF on cell lines expressing different levels of TF was determined by FACS analysis, essentially as described supra. Mouse anti-TF antibody followed by PE-conjugated anti-mouse IgGFc was used as a positive control. Fluorescence was measured on a FACSCantoII. Binding curves were analyzed essentially as described supra, using GraphPad Prism 5 software. The amount of TF molecules on cell lines was determined by Qifi kit (Dako, Glostrup, Denmark), according to the manufacturer's instructions.

[20] = target: T2, human tissue factor (TF), …; test: FACS on AsPC-1 cells (~175.000 TF molecules/cell) [panel AsPC-1 cells]
Experimental: as §1, §2

[21] = target: T1, murine tissue factor (TF) on …; test: FACS on transfected HEK293F cells, 30 µg/mL antibody [panel O]
[22] = target: T1, murine tissue factor (TF) on …; test: FACS on transfected HEK293F cells, 30 µg/mL antibody [panel K]

binding result [1]: no binding (tested: 30 µg/mL)
% max inhibition of FVIIa induced ERK phosphorylation (A431) [2]: 57%
IC50, inhibition of FVIIa induced ERK phosphorylation (A431) [2]: 1.05 nM
EC50 [3]: 1.77 nM
IC50, inhibition of FVIIa induced IL-8 release (MDA-MB-231) [4]: 22.7 nM
max inhibition of FVIIa induced IL-8 release (MDA-MB-231) [4]: 74.9%
EC50 [5]: 2.25 nM
EC50 [6]: 3.16 nM
IC50, inhibition of blood coagulation (TF induced clotting time) [7]: 0.7 nM
Max MFI [8]: 1220
EC50 [9]: 0.85 nM
EC50 [10]: 0.28 nM
Max MFI [11]: 2930
Max MFI [12]: 5860
Max MFI [13]: 2070
EC50 of ADCC, A431 cells [14]: 0.01 nM
EC50 of ADCC, Bx-PC3 cells [14]: 0.09 nM
EC50 of ADCC, MDA-MB-231 cells [14]: 0.1 nM
B1: anti-TF HuMab 101 (antibody, V domains shown)
VH: EVQLLESGGGLVQPGGSLRLSCAASGFTFSNYAMSWVRQAPAKGLDWVSGISGSGVTTYYADSVKGRFTISRDNSKDTLYLQMNSLRAEDTAVYFCAKTPWGYYFDYWGQGILVAVSS
VL: DIQMTQSPSSLSASVGDRVTITCRASQGISSWLAWYQQKPEKAPKSLIYAASSLQSGVPSRFSGSGSGTDFTLTISSLQPEDFATYYCQQYNSYPLYTFGQGTKLEIK
notes: Human monoclonal antibody from HuMab mice

% max inhibition of FVIIa induced ERK phosphorylation (A431) [2]: 52%
IC50, inhibition of FVIIa induced ERK phosphorylation (A431) [2]: > 66.6 nM
EC50 [3]: 0.55 nM
% max inhibition of FXa generation [15]: 7%
IC50, inhibition of FXa generation [15]: 0.07 nM
IC50, inhibition of FVIIa induced IL-8 release (MDA-MB-231) [4]: > 200 nM
max inhibition of FVIIa induced IL-8 release (MDA-MB-231) [4]: 40.1%
EC50 [5]: 1.83 nM
binding result [16]: no binding (tested: 30 µg/mL)
Kd [17]: 0.11 nM
EC50 [6]: 2.88 nM
max inhibition [18]: 79%
Max MFI [8]: 1130
EC50 (read off the curve) [19]: ~0.06 µg/mL
EC50 [9]: 1.03 nM
Max MFI [11]: 3040
Max MFI [12]: 5350
EC50 (read off the curve) [20]: ~0.1 µg/mL
Max MFI [13]: 1770
EC50 of ADCC, A431 cells [14]: 1.56 nM
EC50 of ADCC, MDA-MB-231 cells [14]: 0.84 nM
B2: anti-TF HuMab 111 (antibody, V domains shown)
VH: QVQLVESGGGVVQPGRSLRLSCAGSGFTFNRYAMYWVRQAPGKGLDWVAVISNDGINKYYADSVKGRFTISRDNSKNTLYLQMNSLRAEDTAVYYCARDHTMVRGAFDYWGQGTLVTVSS
VL: EIVLTQSPATLSLSPGERATLSCRASQSVSSYLAWYQQKPGQAPRLLIYDASNRATGIPARFSGSGSGTDFTLTISSLEPEDFAVYYCQQRSNWPLTFGGGTKVEIK
notes: as for B1

max inhibition [18]: 90%
binding result [21]: no binding (tested: 30 µg/mL)
B3: anti-TF HuMab 114 (antibody, V domains shown)
VH: QVQLVESGGGVVQPGRSLRLSCVASGFTVSNDGMHWVRQAPGKGLEWVALIWYDGVNKNYADSVKGRFTISRDKSKNTLYLQMNSLRAEDTAVYYCARRPGTFYGLDVWGQGTTVTVSS
VL: not shown
notes: as for B1

binding result [22]: no binding (tested: 30 µg/mL)
% max inhibition of FVIIa induced ERK phosphorylation (A431) [2]: 64%
IC50, inhibition of FVIIa induced ERK phosphorylation (A431) [2]: 1.89 nM
EC50 [3]: 0.96 nM
% max inhibition of FXa generation [15]: 14%
IC50, inhibition of FXa generation [15]: 0.43 nM
IC50, inhibition of FVIIa induced IL-8 release (MDA-MB-231) [4]: 9.3 nM
max inhibition of FVIIa induced IL-8 release (MDA-MB-231) [4]: 59%
EC50 [5]: 1.38 nM
Kd [17]: 4.85 nM
EC50 [6]: 1.4 nM
IC50 [18]: 0.8 nM
max inhibition [18]: 85%
Max MFI [8]: 1150
EC50 (read off the curve) [19]: ~0.05 µg/mL
EC50 [9]: 0.99 nM
Max MFI [11]: 2760
Max MFI [12]: 5230
Max MFI [13]: 1960
EC50 of ADCC, A431 cells [14]: 0.07 nM
EC50 of ADCC, Bx-PC3 cells [14]: 0.02 nM
EC50 of ADCC, MDA-MB-231 cells [14]: 0.15 nM
B4: anti-TF HuMab 098 (antibody, V domains shown)
VH: QVQLVQSGAEVRKPGSSVKVSCKASGGSFNNYPIFWVRQAPGQGFEWMGRIIPILGITAYAQKFQGRVTITADKSTSTAYMELNSLRSEDTAVYYCAGGDDLDAFDIWGQGTMVSVSS
VL: DIQMTQSPSSLSASVGDRVTITCRASQGISSWLAWYQQKPEKAPKSLIYAASSLQSGVPSRFSGSGSGTDFTLTISSLQPEDFATYYCQQYNSYPYTFGQGTKLEIK
notes: Human monoclonal antibody from HuMab mice; also called HuMab-TF-098; HuMab-TF-98
